From patent US20110311508A1 (NORTHWESTERN UNIVERSITY, published 2011)

Molecular target: the molecule itself
Experiment: self-association (trimerization); EGS crosslinking of K562 cell extracts, SDS-PAGE, western blot
Description: FIG. 9: The HSF1 K80Q mutant is not defective in trimerization ability. A prerequisite of stable HSF binding to DNA is the formation of trimeric HSF complexes. Therefore, it is conceivable that mutations of K80 disrupted proper HSF1 folding or the stress-induced formation of HSF trimers. To explore this possibility, e a cross-linking assay was used to determine the formation of higher-order complexes upon heat shock. K562 cells were transfected with WT Myc-HSF1, Myc-HSF1 K80Q or Myc-HSF1 M391K, L395P, a previously characterized HSF1 mutant that is constitutively trimeric (14). Cells were treated with or without heat shock (HS, 42° C., 20 minutes) followed by treatment with the EGS crosslinking agent. Protein extracts were separated by SDS-PAGE and western blot analysis was performed with the indicated antibodies. The arrow indicates monomeric HSF1 and the arrowhead marks trimeric HSF1.

B1: Myc-HSF1 K80Q (other)
chain: MDLPVGPGAAGPSNVPAFLTKLWTLVSDPDTDALICWSPSGNSFHVFDQGQFAKEVLPKYFKHNNMASFVRQLNMYGFRQVVHIEQGGLVKPERDDTEFQHPCFLRGQEQLLENIKRKVTSVSTLKSEDIKIRQDSVTKLLTDVQLMKGKQECMDSKLLAMKHENEALWREVASLRQKHAQQQKVVNKLIQFLISLVQSNRILGVKRKIPLMLNDSGSAHSMPKYSRQFSLEHVHGSGPYSAPSPAYSSSSLYAPDAVASSGPIISDITELAPASPMASPGGSIDERPLSSSPLVRVKEEPPSPPQSPRVEEASPGRPSSVDTLLSPTALIDSILRESEPAPASVTALTDARGHTDTEGRPPSPPPTSTPEKCLSVACLDKNELSDHLDAMDSNLDNLQTMLSSHGFSVDTSALLDLFSPSVTVPDMSLPDLDSSLASIQELLSPQEPPRPPEAENSSPDSGKQLVHYTAQPLFLLDPGSVDTGSNDLPVLFELGEGSYFSEGDGFAEDPTISLLTGSEPPKAKDPTVS
notes: also called K80Q mutant; K80Q HSF1; not shown: Myc tag
B1: binds.
